B1: cartilage oligomeric matrix protein (COMP, TSP-5), recombinant full-length rat, N-terminal double strep II-tag (natural protein)
chain: not shown
notes: cartilage oligomeric matrix protein, rat, called full-length; the PCR product lacks the natural signal peptide and was cloned in frame with the BM-40 signal peptide; A thrombin cleavage site lies between the tag and the protein; Pentamer held by interchain disulphide bonds; also called TSP-5/COMP; source: HEK293-EBNA, secreted, purified from culture supernatant (streptactin-sepharose)
B2: thrombospondin-2 (TSP-2), recombinant full-length murine, N-terminal double strep II-tag (natural protein)
chain: not shown
notes: thrombospondin-2, mouse, called full-length; the PCR product lacks the natural signal peptide and was cloned in frame with the BM-40 signal peptide; A thrombin cleavage site lies between the tag and the protein; Trimer held by interchain disulphide bonds; heavily glycosylated; source: HEK293-EBNA, secreted, purified from culture supernatant (streptactin-sepharose)
B3: thrombospondin-4 (TSP-4), recombinant full-length rat, N-terminal double strep II-tag (natural protein)
chain: not shown
notes: thrombospondin-4, rat, called full-length; the PCR product lacks the natural signal peptide and was cloned in frame with the BM-40 signal peptide; A thrombin cleavage site lies between the tag and the protein; Pentamer held by interchain disulphide bonds; glycosylated; also called full-length pentameric TSP-4; source: HEK293-EBNA, secreted, purified from culture supernatant (streptactin-sepharose)

Molecular target: the molecule itself
Experiment: SDS-PAGE and immunoblot without and with DTT; purified proteins separated under non-reducing and reducing conditions; composite agarose/polyacrylamide gel for intact TSPs; oligomers held by interchain disulphide bonds
B1 was tested, and the “stoichiometry N” value was 5. B2 was tested, and the “stoichiometry N” value was 3. In the case of B3, the “stoichiometry N” value is reported as 5.

Source: paper PMC6838084, “Direct, gabapentin-insensitive interaction of a soluble form of the calcium channel subunit α2δ-1 with thrombospondin-4” (Scientific Reports, 2019)
